From patent publication US20110167521 come the findings set out here.

Assay in all cases: cell_activity
In data set [1] the test system is ZFP 13722-NtERF3 (artificial). To be noted: homozygous T2 immature seed, event 5227-12, p=0.025; no apparent effect in heterozygous.
The test system of data set [2] is ZFP 13722-KRAB1 (artificial). The settings on record: homozygous T2 immature seed, event 5212-4; no apparent effect in heterozygous.
For data set [3], the system named is ZFP 14025-VP16 (artificial). The settings on record: callus, control 2.90; 27% up-regulation p=0.05; more than 3-fold in some T0 events.

For “AAGGAGAATTTTAGGGTTTGGGGAGACT (double strand) [FatB5 13722 target]”, the values for the activity (% FatB5 mRNA reduction) in data set [1] and in data set [2] were 21 and 15, respectively.

Consider “CGTGGAGACGTCAAAAGA (double strand) [KASII 14025 target]”, for which the activity (KasII/tubulin mRNA ratio) in data set [3] came out at 3.69.
